Data on 1 substance can be found in PMC8049198.

The target in this assay is human prion protein (hPrP), amino acid residues 23-230 (human) (UniProt P04156). The assay can be described thus: high-speed atomic force microscopy (HS-AFM).

As usually defined, the stoichiometry N is the number of molecules, sites or subunits per partner or assembly. In the case of “human prion protein (hPrP), amino acid residues 23-230, P04156 23-230 (domain or fragment; other documents disagree on this pair)”, the stoichiometry N was 6.
